Values quoted from earlier work in paper PMC8431939.
pKd: −log10 of the molar value.

Biological target: CD112 (Homo sapiens) (UniProt Q92692)
Test: SPR

Chain of UniProt Q92692 (Q92692 32-538): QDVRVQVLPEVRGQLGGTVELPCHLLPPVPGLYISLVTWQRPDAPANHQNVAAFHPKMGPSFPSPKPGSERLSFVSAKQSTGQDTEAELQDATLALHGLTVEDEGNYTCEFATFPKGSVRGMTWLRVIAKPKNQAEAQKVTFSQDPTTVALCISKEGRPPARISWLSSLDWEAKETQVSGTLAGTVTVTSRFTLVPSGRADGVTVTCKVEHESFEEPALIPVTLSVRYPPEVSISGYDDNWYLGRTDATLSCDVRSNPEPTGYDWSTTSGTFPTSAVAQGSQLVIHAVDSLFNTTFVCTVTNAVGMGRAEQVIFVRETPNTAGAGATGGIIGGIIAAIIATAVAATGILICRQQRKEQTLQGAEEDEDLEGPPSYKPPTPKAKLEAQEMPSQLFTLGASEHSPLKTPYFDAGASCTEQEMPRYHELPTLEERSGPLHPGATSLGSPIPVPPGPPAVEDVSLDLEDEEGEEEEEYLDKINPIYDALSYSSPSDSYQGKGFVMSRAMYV

pKd: 7.06
Substance: CD112R (from UniProt Q6DKI7)
